According to patent US6423539B1, “Adjuvant treatment by in vivo activation of dendritic cells” (The Board of Trustees of the Leland Stanford Junior …, priority 2000, dated 2002):

Assays:
circulating blood DC = assay: Clinical study: expansion and phenotype of circulating blood DC after Flt3L administration; format: in vivo, human
Protocol: Clinical studies were also performed to determine the effect of the activation methods in human patients. It was shown that administration of FL to patients with advanced cancer mobilizes DC precursors into the blood, resulting in an increase of circulating DC of 20 fold on average.
An expansion of circulating blood DC was found following Flt3L administration. PBMC from patients with advanced cancer were assessed either before or following 10 days of Flt3L administration. DC were characterized phenotypically by expression of HLA DR without expression of lineage markers (CD3, 14, 19, 56).
DC were gated on their expression of HLA DR and lack of lineage markers CD3, 14, 19, 56. Flt3L expanded DC express intermediate levels of CD4 and CD54 more homogeneously by comparison with unmobilized DC. Flt3L expanded DC, however, lack surface expression of CD86 and CD40 compared with unmobilized DC. Results are from one patient and are representative of three patients studied.

circulating DC = conditions: administration to mice in vivo; cited from earlier work

B1: FL: Flt-3 ligand, growth factor that stimulates proliferation of hematopoietic progenitor cells; DC mobilization agent (protein, UniProt P49771 27-235, looked up)
Fms-related tyrosine kinase 3 …: TQDCSFQHSPISSDFAVKIRELSDYLLQDYPVTVASNLQDEELCGGLWRLVLAQRWMERLKTVAGSKMQGLLERVNTEIHFVTKCAFQPPPSCLRFVQTNISRLLQETSEQLVALKPWITRQNFSRCLELQCQPDSSTLPPPWSPRPLEATAPTAPQPPLLLLLLLPVGLLLLAAAWCLHWQRTRRRTPRPGEQVPPVPSPQDLLLVEH
phenotype of expanded human DC (circulating blood DC; gated HLA DR positive, lineage negative, one patient, representative of three): immature phenotype | change in circulating blood DC precursors by flow cytometry (circulating blood DC; patients with advanced cancer, before vs. after 10 days of Flt3L): significant increase | increase of circulating DC (circulating blood DC; patients with advanced cancer, on average): 20 fold | increase in number of circulating DC (circulating DC): 10-30 fold
